{
  "source": "patent US10752675B2",
  "about": "“Compounds for treating the remyelination blockade in diseases associated with the expression of HERV-W envelope protein” (GENEURO S.A., priority 2012, dated 2020)",
  "molecules": {"B1": {"name": "GNbAC1: recombinant humanized anti-Env IgG4 monoclonal antibody comprising the CDRs of SEQ ID No. 1 to 6 (antibody, chains of the INN, looked up, V domains shown)", "VH": "QVQLVQSGAEVKKPGSSVKVSCKASGYTFTDYEMHWVRQAPGQGLEWIGAVAPETGGTAYNQKFKGRATITADKSTSTAYMELSSLRSEDTAVYYCTSTVVPFAYWGQGTLVTVSS", "VL": "QIQLTQSPSSLSASVGDRVTITCSASSSVSYMYWYQQKPGKAPKAWIYRTSNLASGVPSRFSGSGSGTDYTLTISSLQPEDFATYYCQQYQSLPLTFGGGTKVEIK"}},
  "system": "human OPC",
  "test": "Expression of CNPase in human OPC in primary culture stimulated by MSRV-Env, with or without GNbAC1 (immunocytochemistry)",
  "assay_type": "cell-based",
  "conditions": "for CNPase positive cells, normalized to control condition (buffer = 100%): pooled data",
  "description": "Full length recombinant MSRV-Env was produced and purified by PX′Therapeutics (548 aa; 61.44 KDa) (batch 110719-1). The initial concentration was 0.6 mg/ml (9.76 μM). MSRV-Env Buffer (20 mM Trizma-HCl, pH 7.5, 150 mM NaCl, 1.5% SDS, 10 mM DTT) was provided by PX′Therapeutics. This solution was used as a negative control. GNbAC1 (Batch T96/bAC1/B1; GMP production) was produced and purified by Polymun Scientific, Vienna, Austria. The initial concentration was 10 mg/ml (68.03 μM).\nHuman OPC were stimulated with the different treatments either by coating solutions on the cell culture plate surface before cells seeding or by adding them in the cell culture medium after cells seeding. In any case, labtek 8-wells chamber slides (Nunc) were previously coated with poly-L-lysine (Sigma-Aldrich) overnight at 37° C.\nThe different treatments were diluted in PBS under a sterile laminar flow hood (Fischer Bioblock, France) and the Labtek 8 wells chambers slides (Nunc; 250 μl per well) were coated as follows: • MSRV-Env (1 μg/ml) coated for 2 hours at 37° C. • MSRV-Env Buffer (same dilution than MSRV-Env) coated for 2 hours at 37° C. • MSRV-Env+GNbAC1 A1: MSRV-Env (1 μg/ml) and GNbAC1 (7.35 μg/ml=50 nM) mixture coated for 2 hours at 37° C. • MSRV-Env+GNbAC1 A2: MSRV-Env (1 μg/ml) and GNbAC1 (29.4 μg/ml=200 nM) mixture coated for 2 hours at 37° C. • MSRV-Env+GNbAC1 B1: MSRV-Env (1 μg/ml) coated for 2 hours at 37° C., washed with PBS and subsequently coated with GNbAC1 (7.35 μg/ml=50 nM) for 1 hour at 37° C. • MSRV-Env+GNbAC1 B2: MSRV-Env (1 μg/ml) coated for 2 hours at 37° C., washed with PBS and subsequently coated with GNbAC1 (29.4 μg/ml=200 nM) for 1 hour at 37° C. • GNbAC1 A1 alone: GNbAC1 (7.35 μg/ml=50 nM) coated for 2 hours at 37° C. • GNbAC1 A2 alone: GNbAC1 (29.4 μg/ml=200 nM) coated for 2 hours at 37° C. • GNbAC1 B1 alone: PBS for 2 hours at 37° C., then coated with GNbAC1 (7.35 μg/ml=50 nM) for 1 hour at 37° C. • GNbAC1 B2 alone: PBS for 2 hours at 37° C., then coated with GNbAC1 (29.4 μg/ml=200 nM) for 1 hour at 37° C. • BSA (1 μg/ml) coated for 2 hours at 37° C. • BSA+GNbAC1 A1: BSA (1 μg/ml) and GNbAC1 (7.35 μg/ml=50 nM) mixture coated for 2 hours at 37° C. • BSA+GNbAC1 A2: BSA (1 μg/ml) and GNbAC1 (29.4 μg/ml=200 nM) mixture coated for 2 hours at 37° C. • BSA+GNbAC1 B1: BSA (1 μg/ml) coated for 2 hours at 37° C., washed with PBS and subsequently coated with GNbAC1 (7.35 μg/ml=50 nM) for 1 hour at 37° C. • BSA+GNbAC1 B2: BSA (1 μg/ml) coated for 2 hours at 37° C., washed with PBS and subsequently coated with GNbAC1 (29.4 μg/ml=200 nM) for 1 hour at 37° C. Human Oligodendrocyte Precursor Cells Culture\nThe vial containing the human OPC was placed in a 37° C. water bath and gently agitated by rotation until the content was completely thawed. The cells were gently resuspended with a 1 ml Gilson pipette. Then, they were diluted in complete OPCM, and seeded into the 8-wells labtek culture vessels (7000 cells/cm^2=10000 cells per well) previously coated with poly-L-lysine (0.01%, Sigma) and with (or without) the treatments described above (see 3.2.1.1) under a sterile laminar flow hood (Fischer Bioblock, France). The cultures were incubated at 37° C.; 5% CO2 until subsequent immunocytochemistry experiments. The growth medium was changed the next day to remove the residual DMSO and unattached cells in the cultures treated for 72 hours.\nAfter 3 hours of pre-cultivation (see 3.2.1.2) of the human OPC in the 8-well labtek culture vessels, the cells were incubated at 37° C. for 24 hours or 72 hours in 8-wells labteks (250 μl/well) with the addition of the following solutions: • MSRV-Env Buffer, used as a negative control, added in complete cell culture medium • MSRV-Env added at 3 nM (0.184 μg/ml) in complete cell culture medium • MSRV-Env (3 nM)+GNbAC1 (200 nM; 29.4 μg/ml) mixture added in complete cell culture medium • GNbAC1 (200 nM) alone added in complete cell culture medium Expression of TLR4 and Myelination Markers in OPC In Vitro […]",
  "note": "“Also recorded” adds a separate entry of the source.",
  "data": [
    {"molecule": "B1", "values": [
      {"measurement": "effect on percentage of CNPase positive OPC without MSRV-Env", "setting": "GNbAC1 50 nM or 200 nM coated alone or with BSA 1 μg/ml, 24 hours", "result": "no effect"},
      {"measurement": "effect on the decrease of CNPase positive cells induced by coated MSRV-Env", "setting": "GNbAC1 50 nM or 200 nM, protocols GNbAC1-A and GNbAC1-B, 24 hours", "result": "significantly inhibits; also recorded: fully inhibits MSRV-Env effect"},
      {"measurement": "percentage of CNPase positive cells", "setting": "GNbAC1 200 nM alone in culture medium, 24 hours", "result": "74±2", "unit": "%"},
      {"measurement": "effect on CNPase expression of GNbAC1 alone in culture medium", "setting": "GNbAC1 200 nM alone, 24 hours", "result": "no effect; also recorded: does not show any effect alone"},
      {"measurement": "effect on the inhibition of CNPase expression induced by coated MSRV-Env", "setting": "GNbAC1 200 nM, both protocols, 24 hours, OPC ICC 03", "result": "completely reverses; also recorded: fully inhibits MSRV-Env effect"},
      {"measurement": "percentage of CNPase positive cells", "setting": "GNbAC1-A 50 nM (mixture with MSRV-Env 1 μg/ml coated), 24 hours, OPC ICC 02", "result": "69±4", "unit": "%"},
      {"measurement": "percentage of CNPase positive cells", "setting": "GNbAC1-A 200 nM (mixture with MSRV-Env 1 μg/ml coated), 24 hours, OPC ICC 02", "result": "80±2", "unit": "%"},
      {"measurement": "CNPase positive cells, normalized to control condition (buffer = 100%)", "setting": "GNbAC1-A 200 nM with coated MSRV-Env", "result": "102±1", "unit": "%"},
      {"measurement": "percentage of CNPase positive cells", "setting": "GNbAC1-A 200 nM, coated MSRV-Env 1 μg/ml, 24 hours, OPC ICC 03", "result": "90±2", "unit": "%"},
      {"measurement": "percentage of CNPase positive cells", "setting": "GNbAC1-B 50 nM (coated after MSRV-Env 1 μg/ml), 24 hours, OPC ICC 02", "result": "96±3", "unit": "%"},
      {"measurement": "percentage of CNPase positive cells", "setting": "GNbAC1-B 200 nM (coated after MSRV-Env 1 μg/ml), 24 hours, OPC ICC 02", "result": "76±4", "unit": "%"},
      {"measurement": "CNPase positive cells, normalized to control condition (buffer = 100%)", "setting": "GNbAC1-B 200 nM with coated MSRV-Env", "result": "101±1", "unit": "%"},
      {"measurement": "percentage of CNPase positive cells", "setting": "GNbAC1-B 200 nM, coated MSRV-Env 1 μg/ml, 24 hours, OPC ICC 03", "result": "91±4", "unit": "%"},
      {"measurement": "percentage of CNPase positive cells", "setting": "MSRV-Env 3 nM + GNbAC1 200 nM in culture medium, 24 hours", "result": "76±2", "unit": "%"},
      {"measurement": "effect on the decrease of CNPase expression induced by MSRV-Env in culture medium", "setting": "MSRV-Env 3 nM, GNbAC1 200 nM, 24 hours", "result": "fully antagonizes; also recorded: inhibits completely this effect"}
    ]}
  ]
}
